The NTF2 design screens of Basanta et al. (2020)

Assay: protease stability score; higher = more stable; yeast display proteolysis, trypsin and chymotrypsin;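 note: relative to predicted unfolded state with 0 unfolded-like and 1 meaning tenfold more protease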

Q: With “DEEENMAEWAIRLMKHVIETGNFEEFLRLFDPNTRMHVNGVESHGRERSSKVLKEWLEIMGVDHLKVRDEKFSVQGNKLHIHLDTRTEQGDKEIETHIEVISYKIDGRWRQKEIRFEVR” as the sequence, how does the protease stability score read?
A: 1.69

Q: Which protease stability score does the source give for “DEEEQAASHLEELIFRVIETGDWRNFYKMMDPDVRLDFNGQEYHGRENVTEAWHNSFHDLGIKHIELRTKNSQGDFLHLNFIVRYNGREFNVHFNWHVIDGRMKLIDIRVEHI” here?
A: 0.585

Q: For “DEEEQEFREFMKHVLEMIRTGDEDQWRKLMDPDARLIVDGKDIHGREEVVRLWSEITRHARFRDRKIHSMEIQGDKVRVDGRVLGEFNGVDRQTESHIIFHKINGRWKIHQEFIV”, which protease stability score is on record?
A: 0.882

Q: With “DEEEQHAERVTRRWSRAVLTGNEEELSRLMDPHVRVHINGRDLHGREVAVEQRREQHKELGIDHIEVRLRHLRIQGDKLEVDSRVIIRVNGQEITIDTLLIWRKIDGRWVLHSVHEH” as the sequence, how does the protease stability score read?
A: 0.348

Q: For “DEEEQHLKKFLKYLKKAIETGDWHKITEMADPNTRLNINGVDNIGWEIISHILMHELEELGLEQIHVHFEHERIQGDKVKLEIHLHIGDKVEHAEMYILKFDGRWRIKRLVRG”, which protease stability score is on record?
A: 1.93

Q: With “DEEEQHSRELAEIYFEIWETGDFHTHKRMMDPNAKLDYNGQTIHGREHIVEYLRHLWERVKGVRFHLDSVHLQGDWLHIRGTLQVDGQHHKVDIHVQIVDGVLHEEHIRVR” as the sequence, how does the protease stability score read?
A: 1.53

Q: Which protease stability score does the source give for “DEEEQLFHEAHDKFIKIMETGDWKDFHRNFDPDAKIEVGDKDKHGREEATEMLKFILDLLGVDHVLVKRLRIYGNKIESDVVFNVNGVEQRFHLISVKINGKWRTHKIVLR” here?
A: 1.23

Q: With “DEEEQLSKIALRHFVESLETGDEHLLHRLIDPHARDIVDGVEIHGRDRMVENLIHMIERFKNVRLEIKDIKVINGRVHVEGRLEVDGKKLTMNLHFQKFDGRWWVRSVERH” as the sequence, how does the protease stability score read?
A: 1.52

Q: With “DEEEQQVEEVLRNMLRDFYTGDWKRLMKLADPHVQLDINGQLHHGREEAARFLIEWWEILGFKHSRLRHIDIQGEKLHIHGDKRVNGRTFELELIIIIINGRIRSEEIRVI” as the sequence, how does the protease stability score read?
A: 0.691

Q: With “DEEEQRIEEMLKKWLEAMETGDEDLEKQLADPNVRFHIGDKEHVGREELSQVKKRLGIKVMILHDERVDRQGDWIVMHLDIILEFDGRRFRVRFNLFVEKIDGRWLVKKVEIHLR” as the sequence, how does the protease stability score read?
A: 0.936

Q: With “DEEEQSERIALELLDKSINTGDERVWKEMFDPRVIMDINGVKLIGREDYRRWRERFDHEENRDFKIHHHEVQGNKVHLDVEIDLTLNFDGKRHRHIFRTEVDVIKFDGKWHIRSLIVK” as the sequence, how does the protease stability score read?
A: 1.18

Q: For “DEEERAAEEFLRWISKNSRTGDEESFNHLADPNTRVIIGDKVLHGREEWKKFLEEIRIEEIELKDFRIFDGKIRLDVIHTGKVNGRRHEVQVQMIVIKVNGRWIMHSVKFD”, which protease stability score is on record?
A: 1.09

Q: Which protease stability score does the source give for “DEEERAARFVLELIIRTFDTGDEHTIHELLDPHVRLWVGDKTFHGREQITHLIQRHLEELGFDHVHVHHRTIDVQGEKIELHGELELRQGDKRDTRTIKIIVQKVDGRWRITIFEIE” here?
A: 1.48

Q: For “DEEERALIVLLLLFEESMRTGDPRLIKELMDPHMRLRFENRHYHGRDEFMEWFKQVDHIFIDRVNIRDVRLIGEWVRIDVEILGTHEQGDKQFEFRRRTHLVVRKVDGRWIMHHVEIR”, which protease stability score is on record?
A: 1.64

Q: For “DEEERAMEHMVRHLVDDIHTGDWRSLYRFLDPDVRLHVGDKRFHGRDTIVRLLLELLQTWGIDRIHSEVKHVHLQGEKIEAHTKDKYGDFEFSVLVDIFKIDGKWVIERREIS”, which protease stability score is on record?
A: 1.08

Q: For “DEEERDAEEVFRKFMRDVFTGNWDHIHEMFDPHARSSIQVDGRHIELHGRDELTRIFIWLGVDHIELKHVHIQGEKVISIGIVRYNGKHTHLEVYLRKVDGRWIIHSVHVRIR”, which protease stability score is on record?
A: 1.67

Q: Which protease stability score does the source give for “DEEERDAIHAFRDFVKNFITGNEDRIDELADPHMRSDINGVSIHGWEEFSRHTLREMKRFDHIEFRIRDIKIQGNYIHIDTEVILRVNGRTFSTRMVLIWLKVNGKWFLHEIDVR” here?
A: 1.35

Q: For “DEEERDAKEARDLLERSMDTGNEDLWKELLDPNMIIHIGDKEIHGMKEWIEFHKERGAETRVEFKDMRMQGNKLILRLNLKVHFDGQTYEHEVTYIVSKVDGVWLVKYIHIH”, which protease stability score is on record?
A: 0.981

Q: Which protease stability score does the source give for “DEEERDARRVYEHLIENWETGNFDRVLELFDPHVKLIFNGQEFIGRDDVSKEINRIDHEHIDDFRLHSIRIVDGRIEIDGRIRFTLHVNGKTVHFDRKLILIMRKVDGRWIITSLHIR” here?
A: 2.09

Q: With “DEEERDIKIAIEFWIETWLTGDEEKEEELLDPNVRLLINGKELHGRERVVKFLKRHYHRVDHSRIDIRRMHVVDGQVHVETELRVHFDGRELRFDIILHFRKFNGRWEITKIELR” as the sequence, how does the protease stability score read?
A: 2

Q: For “DEEERDISRWLDHLIESLETGDEDSLQHLLDPHVRVVVNGKDHHGWKALTKMLRQLRVNRIRIRDFEIIGDKIEVDIRMHVRVGDKHYVFNVDLVARKIDGRWIMHNITIH”, which protease stability score is on record?
A: 2.19

Q: With “DEEERDLQQFIEEWWKTLVTGDEHLIERYLDPHVRMDWNGRELHGREAIADTIKKYVDEIRLEVRINHVRFQGDKVDIDGEIVERQGDKTRHLNFELEIIVVNGRAQEIRVRLR” as the sequence, how does the protease stability score read?
A: 1.48

Q: For “DEEERDMKHSSERLLRTWVTGDEDLLRTLADPDARHHLEVDGVHLHLHGMEHFSKWTTDLIEKLGIKHFDMKDLDVQGDKIHVHSTFHYGDKTFEVRLIVVKIDGKWLLSHSSFIVR”, which protease stability score is on record?
A: 0.299

Q: With “DEEERDMKIAEEVFLHAMHTGDWKKFFELMDPHVKVHIDGVDLHGREEASKIWKERIDKVKNMTFDVKHSHRQGNKVTLHTELHVNGKTTHLIVVLSKVNGRWTLEEMSEE” as the sequence, how does the protease stability score read?
A: 1.21

Q: With “DEEERDSKRALELMIHWVETGNEERLSRLIDPHARLEIGDKHHHGREEFEKWFRRIDYLQYYTVRHIELQGDKIEVKVELTFIIDGQEVHTETRVIAIKFDGRWRLTSMEIN” as the sequence, how does the protease stability score read?
A: 1.54

Q: Which protease stability score does the source give for “DEEERDSRIALEIWLHNVRTGDEKSERDNLDPHVRYIVDGRDYIGREDFLHMMSQIRIEEIRIKRFSSYNGRIHMDVHSRVTYNGVDRDIDENLHSTKYDGRWSIHYIEFR” here?
A: 1.01

Q: Which protease stability score does the source give for “DEEEREARDAVHRFDKDVVTGDEDRLRELMDPNVKLDIGDKEIIGREYMVSFWRELVKHIRIHSITIKRVEVYDGRIHVHQEVTLNIDGQHVTIKSHTIALKVNGKWTWTRFSMT” here?
A: 1.06

Q: For “DEEERELKHFLKEFNRAWRTGDEDEIRHLLDPHVRILFNGVHVIGMEEIEKFWRHLRVRVTRITVHRVDLQGDKLRVDTEQDLVFLIGDFENKHTHHTVIFILKINGRWIIESIVIV”, which protease stability score is on record?
A: 1.45

Q: For “DEEERERKHIAEEFAHELETGDEERFVELADPNVRSDINGKQYHGRDRFRDWQEQWHEKVKNLRFEIERWRVIGDFVRIDVRIRIDGRRHNVEIIQVVVNGRITFLEIRVK”, which protease stability score is on record?
A: 0.799

Q: Which protease stability score does the source give for “DEEERFAEEAVEIIIRDWMTGDEELLHRNADPHMRIEVGDKTIHGMENFVKFLLEIRMKDSRLRVEDVKHYNGKLHLTFKSEVDGRVNGRRKTLTFDIKMIIEKVDGRWILKTIHIV” here?
A: 1.89

Q: With “DEEERFSEEALRRIWHALETGDERIQEDLADPNVRIDVGEKSYHGREKWSEMIRHMRLHDIKIHHVIVINGRMRFHGRMDGNIDGKRIDTEVEIHFEKVDGKWLVRKIRIH” as the sequence, how does the protease stability score read?
A: 2.25

Q: For “DEEERHMKKLLDELLRAWVTGDESRLSELLDPNARSIVNGKSSHGREESEKIVRWAGVKHFNEDDTKLINGVVVVKGTMEVDGVTWEVDIRNFIFDGRVKEVRIIIR”, which protease stability score is on record?
A: 1.19

Q: For “DEEERHTHEWFKELLHNLQTGDEDRFRQMADPNVQILVDGVEYIGREHAAHWMIIHIRHLRIEHEHDEEIRVFDGRIDVRHIRVGSYGDKRTDTRVHIDVNIIDGRIKFLRIHYS”, which protease stability score is on record?
A: 0.869

Q: Which protease stability score does the source give for “DEEERHTREMADWFITLFLTGNEEIMMELADPNMRLEHISEDEHYEYHGMHDVSRWLHELLLKFKNIRVRLRRIRIQGDYVIIHQDLNYNGKRVHVIIIVHIFDGRIKSLRFEFR” here?
A: 1.67

Q: For “DEEERHVQTLYEIFLKLEITGNEHAIKRLLDPHTRLHINGREHHGREEVVEAVRFWLTEWRIHHFKIHNREVQGDKMYMDTRLEVEFNGVNEEVHMIIIMQKIDGRWILRRIEIE”, which protease stability score is on record?
A: 2.25

Q: Which protease stability score does the source give for “DEEERHVRELLQRLINALDTGDWKTIHELFDPHARMEINGQHYHGRETINDKLKEMRVSVHDWEQKHIDTFEGHAVVHTHVHIVYIVNGVKHINDTREMIVFTKINGRWVIESRHVK” here?
A: 0.563

Q: With “DEEERHVRELLREWIESLFTGDEHRLMELADPHARSHIDGVDLHGRENMHRMIHELRITDMRIRRISVRLVGDFVDVRVDGESDIYFNGQRLHTQIDIVIISSKIDGKWVIEEVHHNIE” as the sequence, how does the protease stability score read?
A: 0.763

Q: Which protease stability score does the source give for “DEEERIAEEMISDWIHVMRTGNEELLKDMADPHVKVYIDGRDFHGMEFLVREYRQYDHNDSELRHFTVQGNYVFSEQMLKLTVNGQTITWEVHYKSLKVDGRWIVTLILLK” here?
A: 1.32

Q: Which protease stability score does the source give for “DEEERIAKVMLKIVEKDLHTGNFETLFHLMDPHMRLEYGDKHHHGREEAYRELLEIWEELGANHYHITHRHVRLIGDKIRIHIYSIVRFNGREHHLHIDLIVTKIDGRWVMHRIIIELK” here?
A: 0.723

Q: Which protease stability score does the source give for “DEEERISEELFNFITKHWLTGDFDAVRNRLDPNVRYLINGREWHGREYARHLASHLRVERVKIENFEIQGNKITFDTRMDGEFDGQHIDVKTIIIFVKIDGKWLLHEFVIH” here?
A: 1.34

Q: Which protease stability score does the source give for “DEEERKMEEALRLMKTTHDTGDWDLERELFDPNVKMDINGRELHGRRHWEKLRKDFGLDNIRFTLRHIDSQGDFILIRGDVEINGVRLDVIIIAEKINGRWIVREVRLR” here?
A: 0.718

Q: For “DEEERLDEEIMERIHKAYATGDFDEIKRLIDPHVRSDINGVDTHGRDDAIHYLHHVYRRLGFKHFELKHVESYDGRVHTDGWLRFNGQERRVEFRWQVIDGRIHSVSLRMK”, which protease stability score is on record?
A: 0.975

Q: For “DEEERLEREIVDHLWTNWYTGDEERMEELADPNVRLEINIGDKHIRLHGRHELLRHLHEWKERFKNIKIRLHDYRVIDGRVHLHVVYRFDGRHKTMHIELYIVNGRIKEIIHRES”, which protease stability score is on record?
A: 1.66

Q: With “DEEERLLDHVIKLMLQMHLTGNEEIFLNLADPHAKFYFNGVDLHGMELVSKWESEWLHHIRIRRRHIEDSRIVGDKAHIHVRVDEEIGDKKLDTHYRVDLVVINGRWHSVRIDMR” as the sequence, how does the protease stability score read?
A: 1.25

Q: For “DEEERLLEELARLFLHLWRTGDEDTMLHLADPNTRSRINGVEQHGMELTNKFLEELLRHIRIKHLKITHSYAFDGRVFMHTLMHRTVDGKEETVWVEIILVVFNGKLKEYEVRFK”, which protease stability score is on record?
A: 1.3

Q: Which protease stability score does the source give for “DEEERLLEKSIKEEIERNVTGDFRRIHELFDPNMRLDINGQEYMGRDLMVERWQKFKNVRSHIELRHYEIINGKAHVDGHLILYIDGVELRTRTRIIYVKINGRWSIQEIDIT” here?
A: 1.38

Q: With “DEEERLLHEAFEELVRVWETGDEEEKLRYMDPNTIIVINGVELHGREEARKHAHHLRIHRFHLKDYRFQGDKVHLDMHIDGFINGQKMRTDVRFQVHKIDGRWVITHSIWI” as the sequence, how does the protease stability score read?
A: 1.71

Q: With “DEEERLLLEWVRLFLTAWETGDEKLQEKLMDPHARTDFNGVQLHGREEYSRFLSQLRIRRFHVRDESIRIVGNKAESEVDGEVEGEVNGQRFKQHTEIEIHSEKINGRWLWKSLTIRIK” as the sequence, how does the protease stability score read?
A: 1.5

Q: With “DEEERLMKELSDRFLHMKETGDEELFHKLADPNVRVEIGDKSRHGRELATEFLSWVMKELGVKHVKLHDKRTYDGRVHLNGTLEFNGREFRVRITVIIVNGRVHDIRVELE” as the sequence, how does the protease stability score read?
A: 0.771

Q: Which protease stability score does the source give for “DEEERLQEELTKRLIHDFETGDFEAILELFDPHVRVFVNGKDDHGWEMLERSWREMGIDHMQIRDFELHHINGRLEVRIRTEIRVGDKTMDTIIILNVQKYDGRWRIHKVEITIR” here?
A: 1.24
